Assay [1] addresses HLA-A*02 tetramers with the 9 similar peptides (SimPeps, SEQ ID NOs: 59-67). In words: yeast display, 9 similar peptides, 10 nM HLA-A*02 tetramer.
For assay [2] the target is unchanged. Briefly: yeast display, flow cytometry, SimPep tetramer mix, 25 nM each. (In flow cytometry, cells or beads pass a laser one at a time.)

B1: scTCR CL-21753 (TCR)
chain: EDVEQSSFLSVREGDSAVINCTYTDASSTYFYWYKQEPGAGLQLLTYIFSNMDMKQDQRLTVLLNKKDKHLSLRIADTQTGDSAIYFCAVKDNARLMFGDGTQLVVKPGGGGSGGGGSGGGGSGGGGSGGGGSAVISQKPSRDIVQRGNSVTIQCQVDRPVTMMFWYRQQPGQSLTLIATAYDEGSATYESGFVIDKFPISRPNLTFSTLTVSNMSPEDSSIYLCSVLGAYGYTFGSGTRLTVV
Regarding B1, in assay [1], the similar peptide binding, % positive cells turned out to be 0%.

B2: scTCR R76P1E1S with matured CDRb1 RPVTM (TCR)
chain: EDVEQSSFLSVREGDSAVINCTYTDSSSTYFYWYKQEPGAGLQLLTYIFSNMDMKQDQRLTVLLNKKDKHLSLRIADTQTGDSAIYFCAVKDNARLMFGDGTQLVVKPGGGGSGGGGSGGGGSGGGGSGGGGSGAVISQKPSRDIVQRGNSVTIQCQVDRPVTMMFWYRQQPGQSLTLIATANQGSEATYESGFVIDKFPISRPNLTFSTLTVSNMSPEDSSIYLCSVLGAYGYTFGSGTRLTVV
For B2, the yeast cells stained positive in assay [2] is 0%.

The values above are taken from patent publication US20250034227A1.
